What was measured:
CD73-ND-T183A = target: T1, CD73-ND-T183A (human, UniProt P21589 27-317); assay: ELISA, high plateau value (OD 450 nm)
T1 construct: Alanine mutant of CD73-ND
T1 sequence: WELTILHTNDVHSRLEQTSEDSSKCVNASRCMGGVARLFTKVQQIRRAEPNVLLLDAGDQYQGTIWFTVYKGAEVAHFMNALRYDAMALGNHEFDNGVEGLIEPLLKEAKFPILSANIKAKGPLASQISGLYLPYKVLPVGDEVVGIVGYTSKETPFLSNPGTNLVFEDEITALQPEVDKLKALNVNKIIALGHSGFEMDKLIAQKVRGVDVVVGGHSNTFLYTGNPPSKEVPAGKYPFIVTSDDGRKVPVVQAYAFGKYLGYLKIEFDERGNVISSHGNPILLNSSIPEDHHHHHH
Protocol: (§1) The ELISA plates were coated with SA protein diluted to 1.5 μg/mL in coating buffer (50 mM carbonate coating buffer, pH 9.6) and incubated overnight at 4° C. The supernatant was discarded, and the plates were washed three times with PBST. Then, 5% skimmed milk powder prepared with PBS was added for blocking and the plates were incubated for 2 h at 37° C. After washing the plates once with PBST, CD73-biotin protein (prepared by biotinylating CD73-His protein according to the EZ-Link NHS-Biotin Reagent instructions) was diluted to 0.5 μg/mL and added at 100 μL/well for incubation at room temperature for 1 h. The plates were washed three times with PBST, and the prepared murine-derived monoclonal antibodies against human CD73 were serially diluted with 1% BSA buffer prepared with PBST and added to the ELISA plates at 100 μl/well. The plates were incubated at 37° C. for 1 h. After washing the plates three times with PBST, HRP-labeled goat anti-mouse IgG secondary antibody was added and the plates were incubated for 30 min at 37° C. After washing the plates three times with PBST, the residual droplets were patted dry on absorbent paper as much as possible. Then, 100 μl of TMB color developing solution was added to each well, and the plates were incubated in the dark at room temperature for 5 min for color development. Subsequently, 50 μl of 2M H₂SO₄ stop solution was added to each well to terminate the substrate reaction. The OD values were read at 450 nm using a multimode microplate reader to analyze the binding ability of the tested antibodies to the target antigen human CD73-His.
(§2) Referring to the experimental method in Example 3, the affinity of 48A11-HuV33 for various mutant proteins of CD73-ND was determined. The SA protein was diluted to 1 μg/mL for coating the ELISA plates, and the biotinylated CD73 protein (CD73-biotin) was used at a concentration of 0.1 μg/mL.

CD73-ND-K182A = target: T2, CD73-ND-K182A (human, UniProt P21589 27-317); assay: ELISA, high plateau value (OD 450 nm)
T2 construct: Alanine mutant of CD73-ND
T2 sequence: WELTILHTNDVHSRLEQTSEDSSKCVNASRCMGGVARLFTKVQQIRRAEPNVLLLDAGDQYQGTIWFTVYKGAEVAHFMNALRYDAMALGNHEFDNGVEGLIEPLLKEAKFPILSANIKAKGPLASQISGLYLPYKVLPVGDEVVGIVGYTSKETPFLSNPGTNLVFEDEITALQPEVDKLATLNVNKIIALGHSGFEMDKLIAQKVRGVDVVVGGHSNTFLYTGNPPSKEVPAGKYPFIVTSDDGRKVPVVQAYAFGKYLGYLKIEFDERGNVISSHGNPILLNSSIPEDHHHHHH
Protocol: as §1, §2

CD73-ND-his = target: T3, CD73-ND-his (human, UniProt P21589 27-317); assay: ELISA, high plateau value (OD 450 nm)
T3 construct: Biotinylated and captured on streptavidin in the ELISA
T3 sequence: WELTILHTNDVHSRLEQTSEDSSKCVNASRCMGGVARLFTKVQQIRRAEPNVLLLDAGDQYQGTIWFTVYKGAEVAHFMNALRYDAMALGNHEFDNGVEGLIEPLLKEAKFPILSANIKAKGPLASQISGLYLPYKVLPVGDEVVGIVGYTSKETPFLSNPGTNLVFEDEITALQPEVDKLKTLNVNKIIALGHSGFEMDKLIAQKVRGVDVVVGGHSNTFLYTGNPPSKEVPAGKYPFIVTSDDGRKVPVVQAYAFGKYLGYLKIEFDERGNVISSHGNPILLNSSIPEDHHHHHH
Protocol: as §1, §2

CD73-ND-L181A = target: T4, CD73-ND-L181A (human, UniProt P21589 27-317); assay: ELISA, high plateau value (OD 450 nm)
T4 construct: Alanine mutant of CD73-ND
T4 sequence: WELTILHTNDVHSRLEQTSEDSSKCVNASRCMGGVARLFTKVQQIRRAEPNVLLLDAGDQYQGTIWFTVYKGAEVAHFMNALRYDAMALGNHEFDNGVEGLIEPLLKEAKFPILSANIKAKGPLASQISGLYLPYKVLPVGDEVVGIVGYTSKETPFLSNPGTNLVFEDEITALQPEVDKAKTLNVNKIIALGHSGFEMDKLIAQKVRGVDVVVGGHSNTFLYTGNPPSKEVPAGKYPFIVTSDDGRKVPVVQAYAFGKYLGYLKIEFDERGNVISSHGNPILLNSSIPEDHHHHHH
Protocol: as §1, §2

CD73-ND-N185A = target: T5, CD73-ND-N185A (human, UniProt P21589 27-317); assay: ELISA, high plateau value (OD 450 nm)
T5 construct: Alanine mutant of CD73-ND
T5 sequence: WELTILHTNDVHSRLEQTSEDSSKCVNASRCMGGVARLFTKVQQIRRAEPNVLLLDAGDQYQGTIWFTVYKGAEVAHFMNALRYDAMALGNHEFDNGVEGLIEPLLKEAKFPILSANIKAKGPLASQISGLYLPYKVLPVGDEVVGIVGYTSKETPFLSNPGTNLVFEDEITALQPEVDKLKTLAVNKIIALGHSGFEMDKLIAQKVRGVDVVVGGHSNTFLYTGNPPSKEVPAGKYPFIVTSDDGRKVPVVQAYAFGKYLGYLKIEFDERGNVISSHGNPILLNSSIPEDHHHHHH
Protocol: as §1, §2

CD73-ND-N187A = target: T6, CD73-ND-N187A (human, UniProt P21589 27-317); assay: ELISA, biotinylated antigen on streptavidin plate
T6 construct: Alanine mutant of CD73-ND
T6 sequence: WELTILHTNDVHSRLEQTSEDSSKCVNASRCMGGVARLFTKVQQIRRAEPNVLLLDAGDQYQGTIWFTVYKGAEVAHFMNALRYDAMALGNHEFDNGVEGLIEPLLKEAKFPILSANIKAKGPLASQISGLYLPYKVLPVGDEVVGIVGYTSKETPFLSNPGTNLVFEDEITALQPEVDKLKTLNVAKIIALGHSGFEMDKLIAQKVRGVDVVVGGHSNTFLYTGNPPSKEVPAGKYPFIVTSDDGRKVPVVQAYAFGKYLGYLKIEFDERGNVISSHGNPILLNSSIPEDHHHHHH
Protocol: as §1, §2

B1: 48A11-HuV33 (antibody, human IgG4, V domains shown)
VH: QVQLVQSGAEVKKPGASVKVSCKASGYTFTSYWMHWVRQAPGQGLEWIGEINPSIGRTNYNEKFKSRVTLTRDTSTSTAYMELSSLRSEDTAVYYCARRVYGTMDYWGQGTLVTVSS
VL: DIQMTQSPSSLSASVGDRVTITCKASQDINSYLSWFQQKPGKSPKLLIYRANIWVDGVPSRFSGSGSGQDYTFTISSLQPEDIATYYCLQYDELYTFGQGTKVEIK
notes: Humanized
Top (CD73-ND-T183A): 1.98 | Top (CD73-ND-K182A): 2.03 | Top (CD73-ND-his): 1.98 | Top (CD73-ND-L181A): 1.05 | Top (CD73-ND-N185A): 1.9 | EC50 (CD73-ND-N187A): 0.105 nM
